Where two headings read alike, the source gives them in different places.
Tests used:
LRP6 = LRP6 (Homo sapiens, UniProt O75581); conditions: cited from earlier work
LRP5 = biological target: T1, LRP5 (Homo sapiens, UniProt O75197); assay: Cell-based TCF reporter high-throughput assay, LRP5 cDNA; conditions: U2OS cells, Wnt1 or Wnt3a/Wnt1 co-transfected, FIG. 20
T1 construct: Site-directed mutants of LRP5 were generated in the full-length human LRP5 cDNA; expressed in transfected cells; host or cells: HOB-03-CE6 osteoblastic cells; U2OS osteosarcoma cells; HEK293
T1 sequence (O75197 32-1615): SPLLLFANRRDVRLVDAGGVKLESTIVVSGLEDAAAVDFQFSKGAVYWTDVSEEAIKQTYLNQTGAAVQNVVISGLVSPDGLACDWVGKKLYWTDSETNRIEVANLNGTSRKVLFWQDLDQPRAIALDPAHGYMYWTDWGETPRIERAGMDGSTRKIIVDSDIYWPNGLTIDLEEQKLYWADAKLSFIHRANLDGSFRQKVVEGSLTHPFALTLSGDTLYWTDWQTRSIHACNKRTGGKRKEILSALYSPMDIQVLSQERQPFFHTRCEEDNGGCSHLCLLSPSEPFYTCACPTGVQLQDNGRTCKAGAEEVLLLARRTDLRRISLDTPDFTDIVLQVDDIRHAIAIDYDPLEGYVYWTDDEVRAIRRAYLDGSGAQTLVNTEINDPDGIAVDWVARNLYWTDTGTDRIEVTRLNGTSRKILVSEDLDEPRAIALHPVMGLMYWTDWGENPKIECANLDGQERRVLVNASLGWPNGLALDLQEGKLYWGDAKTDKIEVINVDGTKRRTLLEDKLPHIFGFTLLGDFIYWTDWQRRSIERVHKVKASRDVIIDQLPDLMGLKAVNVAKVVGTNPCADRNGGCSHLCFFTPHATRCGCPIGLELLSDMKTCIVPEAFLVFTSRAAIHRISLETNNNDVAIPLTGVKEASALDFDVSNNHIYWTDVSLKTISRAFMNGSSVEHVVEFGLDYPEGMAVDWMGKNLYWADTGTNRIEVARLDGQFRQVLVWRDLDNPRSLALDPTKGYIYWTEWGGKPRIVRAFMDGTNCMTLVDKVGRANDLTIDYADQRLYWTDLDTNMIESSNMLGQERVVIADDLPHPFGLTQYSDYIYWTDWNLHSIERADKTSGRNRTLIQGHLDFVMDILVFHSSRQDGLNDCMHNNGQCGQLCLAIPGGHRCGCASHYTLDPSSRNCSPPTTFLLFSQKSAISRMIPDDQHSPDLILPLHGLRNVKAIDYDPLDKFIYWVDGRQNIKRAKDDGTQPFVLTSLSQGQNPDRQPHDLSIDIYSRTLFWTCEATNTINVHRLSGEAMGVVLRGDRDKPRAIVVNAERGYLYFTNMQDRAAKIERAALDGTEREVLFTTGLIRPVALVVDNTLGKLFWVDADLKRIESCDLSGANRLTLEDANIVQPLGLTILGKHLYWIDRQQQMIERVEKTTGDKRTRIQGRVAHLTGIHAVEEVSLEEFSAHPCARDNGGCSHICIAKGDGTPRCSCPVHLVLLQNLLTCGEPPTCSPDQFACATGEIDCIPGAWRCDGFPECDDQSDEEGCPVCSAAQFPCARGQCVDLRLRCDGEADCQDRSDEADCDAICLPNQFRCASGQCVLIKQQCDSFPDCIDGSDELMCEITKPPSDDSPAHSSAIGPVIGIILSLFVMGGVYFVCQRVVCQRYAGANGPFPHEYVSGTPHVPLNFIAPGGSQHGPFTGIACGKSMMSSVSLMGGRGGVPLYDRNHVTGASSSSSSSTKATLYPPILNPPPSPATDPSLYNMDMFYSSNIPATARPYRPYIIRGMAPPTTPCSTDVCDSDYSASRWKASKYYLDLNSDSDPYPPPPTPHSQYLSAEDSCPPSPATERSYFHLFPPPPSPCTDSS
From the text: To develop a high throughput assay, the TCF-luciferase assay described in Example 7 was modified utilizing low level expression of endogenous LRP5/6 in U2OS and HEK293 cells. However, HOB-03-CE6 cells and any other cells which show a differential response to Dkk depending on whether LRP5, LRP6 or HBM are expressed. Using U2OS (human osteosarcoma) and HEK293 (ATCC) cells, the TCF-luciferase and tk-Renilla reporter element constructs were co-transfected along with Wnt3a/1 and Dkk. Wnt3a alone, by using endogenous LRP5/6, was able to stimulate TCF reporter gene activation. When Dkk, is co-transfected with Wnt3a/Wnt 1 and reporters (TCF-luci and tk-Renilla), DEkk represses reporter element activity. In addition, the TCF-luci signal is activated by Wnt3a/Wnt1 can be repressed by the addition of Dkk-enriched conditioned media to the cells containing Wnt3a/Wnt1 and reporters.
The Dkk-mediated repression of the reporter is dependent upon the concentration of transfected Dkk cDNA or on the amount of Dkk-conditioned media added. In addition, the Dkk-mediated reporter suppression can be altered by the co-transfection of LRP5, LRP6, and HBM cDNAs in the U2OS or HEK293 cells. In general, U2OS cells show greater sensitivity to Dkk-mediated reporter suppression than that in HEK-293 cells. […]

LRP5 LBD = assay: Yeast-2 hybrid interaction trap LRP5 LBD-LexA / Gal4AD-Dkk; format: binding; conditions: LRP5LBD-LexA bait and Gal4AD-Dkk prey
Sequence of LRP5 LBD (as listed by the source): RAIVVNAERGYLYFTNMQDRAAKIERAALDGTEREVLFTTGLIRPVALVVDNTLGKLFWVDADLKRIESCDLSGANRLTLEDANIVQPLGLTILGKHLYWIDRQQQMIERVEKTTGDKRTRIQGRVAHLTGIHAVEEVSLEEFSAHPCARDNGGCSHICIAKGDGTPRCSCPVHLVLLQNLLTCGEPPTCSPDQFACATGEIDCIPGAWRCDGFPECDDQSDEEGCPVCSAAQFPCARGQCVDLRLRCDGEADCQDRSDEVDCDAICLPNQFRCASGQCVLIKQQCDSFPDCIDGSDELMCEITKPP
From the text: Small molecule inhibitors (or partial inhibitors) of the Dkk-LRP interaction may be an excellent osteogenic therapeutic. One way to investigate this important protein-protein interaction is using Y2H techniques substantially as described above and as is well known in the art. […] This interaction is quantitated using a reporter element known in the art, e.g., LacZ or luciferase, which is only activated when bait and prey interact. The Y2H assay is used to screen for compounds which modulate the LRP-Dkk interaction. Such a modulation would be visualized by a reduction in reporter element activation signifying a weaker or disrupted interaction, or by an enhancement of the reporter element activation signifying a stronger interaction. Thus, the Y2H assay can be used as a high-throughput screening technique to identify compounds which disrupt or enhance Dkk interaction with LRP5/LRP6/HBM, which may serve as potential therapeutics.
For example, the Interaction Trap methodology can be used as follows. […] With the LRP5LBD-LexA bait and the Gal4AD-Dkk prey, over a 20-fold activation of a lacZ reporter (under the control of a single LexA operator) was detected over the background. […] As a result, small molecules may be identified that modulate this interaction between LRP and Dkk.

Sequence of LRP6 (O75581 20-1613, species assumed): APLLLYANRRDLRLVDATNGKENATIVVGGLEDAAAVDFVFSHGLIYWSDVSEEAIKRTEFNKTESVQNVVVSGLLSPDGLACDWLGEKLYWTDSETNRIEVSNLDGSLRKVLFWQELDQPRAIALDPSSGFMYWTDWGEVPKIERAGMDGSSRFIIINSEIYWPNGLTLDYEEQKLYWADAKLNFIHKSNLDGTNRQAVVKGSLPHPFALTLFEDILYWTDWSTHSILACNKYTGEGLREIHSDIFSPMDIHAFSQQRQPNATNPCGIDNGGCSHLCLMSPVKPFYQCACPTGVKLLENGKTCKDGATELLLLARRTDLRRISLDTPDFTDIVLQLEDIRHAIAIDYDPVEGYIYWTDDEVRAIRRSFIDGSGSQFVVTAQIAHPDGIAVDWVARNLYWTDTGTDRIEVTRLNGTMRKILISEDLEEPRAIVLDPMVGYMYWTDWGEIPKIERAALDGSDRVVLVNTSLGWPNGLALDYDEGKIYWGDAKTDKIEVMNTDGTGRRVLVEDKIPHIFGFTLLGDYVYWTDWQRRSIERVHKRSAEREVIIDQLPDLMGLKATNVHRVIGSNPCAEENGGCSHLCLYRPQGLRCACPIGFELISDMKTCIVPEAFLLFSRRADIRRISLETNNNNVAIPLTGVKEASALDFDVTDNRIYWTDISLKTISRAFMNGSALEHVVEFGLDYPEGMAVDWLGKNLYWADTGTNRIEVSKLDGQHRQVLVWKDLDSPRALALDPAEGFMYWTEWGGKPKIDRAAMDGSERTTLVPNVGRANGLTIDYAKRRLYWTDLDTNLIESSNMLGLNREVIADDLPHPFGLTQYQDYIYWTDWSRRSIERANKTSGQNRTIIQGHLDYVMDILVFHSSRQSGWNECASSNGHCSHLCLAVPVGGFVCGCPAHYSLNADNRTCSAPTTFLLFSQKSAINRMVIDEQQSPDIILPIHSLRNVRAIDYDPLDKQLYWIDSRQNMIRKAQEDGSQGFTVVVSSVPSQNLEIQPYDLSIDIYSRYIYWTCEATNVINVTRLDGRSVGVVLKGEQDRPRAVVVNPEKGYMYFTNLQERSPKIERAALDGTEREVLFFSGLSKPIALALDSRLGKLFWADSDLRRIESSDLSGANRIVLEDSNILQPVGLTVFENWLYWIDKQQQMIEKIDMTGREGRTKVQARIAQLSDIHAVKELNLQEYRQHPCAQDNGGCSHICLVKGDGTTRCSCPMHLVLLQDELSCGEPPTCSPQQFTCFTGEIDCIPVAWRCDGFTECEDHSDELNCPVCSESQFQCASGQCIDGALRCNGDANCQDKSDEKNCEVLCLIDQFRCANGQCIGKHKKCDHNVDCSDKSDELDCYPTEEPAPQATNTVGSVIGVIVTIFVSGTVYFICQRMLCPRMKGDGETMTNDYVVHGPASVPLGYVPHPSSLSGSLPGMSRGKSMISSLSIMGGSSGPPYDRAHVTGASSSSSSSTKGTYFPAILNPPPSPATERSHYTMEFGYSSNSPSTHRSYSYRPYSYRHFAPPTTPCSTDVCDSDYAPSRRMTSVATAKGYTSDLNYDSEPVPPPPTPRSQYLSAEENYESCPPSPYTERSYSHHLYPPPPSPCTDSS

Dkk-1: Dickkopf-1 protein, antagonist of the Wnt pathway; expressed from human cDNA (RNA or plasmid)
Kd (LRP6; Bafico et al., 125I-labeled Dkk-1): 0.39 nM
Kd (LRP6; Mao et al., classical biochemical ligand-receptor studies): 0.34 nM
Dkk-mediated repression of LRP5 signaling (TCF reporter) (LRP5): represses
Dkk-mediated repression of LRP5 signaling (TCF reporter) (LRP5; listed as Dkk1): moderate
activation of lacZ reporter over the background (LRP5 LBD): > 20 fold
